Data from patent US20100086997A1 (published 2010).

B1: Fc-fused recombinant human P75 (Fc fusion, UniProt P08138 29-250, looked up)
chain: KEACPTGLYTHSGECCKACNLGEGVAQPCGANQTVCEPCLDSVTFSDVVSATEPCKPCTECVGLQSMSAPCVEADDAVCRCAYGYYQDETTGRCEACRVCEAGSGLVFSCQDKQNTVCEECPDGTYSDEANHVDPCLPCTVCEDTERQLRECTRWADAECEEIPGRWITRSTPPEGSDSTAPSTQEPEAPPEQDLIASTVAGVVTTVMGSSQPVVTRGTTDN
notes: Bought from R&D Systems or made in-house; also called p75 neurotrophin receptor; LNGFR; not shown: Fc part

Experiments:
Assay in all cases: SPR (Biacore 3000), Fc-fused receptor amine-coupled to CM5 chip, ligand in solution, 25 C
ProNGF = ProNGF (UniProt P01138 19-241)
Procedure: (§1) A standard amine-coupling protocol was used in HBS-EP running buffer at 5 μl/min and involved three steps. […]. First, flow cells were activated with a 7-minute injection of a freshly prepared mixture of 200 mM EDC in 50 mM NHS; this step converted the chip's carboxylic acid groups to reactive esters. Next, receptors were diluted to ˜10 μg/mL in 10 mM sodium acetate buffer at pH 4.5 and coupled to the chip until the desired level had been reached. Finally, excess reactive esters were blocked with a 7-minute injection of 1M sodium ethanolamine-HCl (pH 8.5).
(§2) The Fab fragment of antibody 200.38B8 (38B8) was diluted from 0.7-480 nM in 3-fold increments. Samples were injected for 30 seconds at 100 μl/min allowing dissociation times of up to 10 mins. After each binding cycle, receptor surfaces were regenerated with a mildly acidic cocktail (10 mM glycine-HCl (pH 4.0), 500 mM NaCl, and 20 mM EDTA). […] Kinetic rate constants (kon and koff) were determined by fitting the binding data globally to a mass transport model and binding affinities were calculated from their ratio, KD=koff/kon.

[1] = molecular target: T1, human TrkB-Fc fusion protein (human, UniProt Q16620 32-430)
T1 construct: Bought from R&D Systems or made in-house; also called HuTrkB; Fc-fused recombinant human TrkB; not shown: Fc part
Procedure: as §1, §2

[2] = molecular target: B1
Procedure: as §1, §2

[3] = molecular target: T2, Fc-fused recombinant human TrkA (human, UniProt P04629-2 33-407, limits assumed)
T2 construct: Bought from R&D Systems or made in-house; not shown: Fc part
Procedure: as §1, §2

[4] = molecular target: T3, Fc-fused recombinant human TrkC (human, UniProt Q16288 32-429)
T3 construct: Bought from R&D Systems or made in-house; not shown: Fc part
Procedure: as §1, §2

Sequence of ProNGF (P01138 19-241): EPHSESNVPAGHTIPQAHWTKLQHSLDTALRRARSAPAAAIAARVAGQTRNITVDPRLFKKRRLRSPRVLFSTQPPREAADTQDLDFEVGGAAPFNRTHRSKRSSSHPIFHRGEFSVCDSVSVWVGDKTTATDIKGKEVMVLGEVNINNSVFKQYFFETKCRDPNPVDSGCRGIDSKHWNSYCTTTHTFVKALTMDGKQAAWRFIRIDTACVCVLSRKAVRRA
T1 sequence (Q16620 32-430 limits assumed): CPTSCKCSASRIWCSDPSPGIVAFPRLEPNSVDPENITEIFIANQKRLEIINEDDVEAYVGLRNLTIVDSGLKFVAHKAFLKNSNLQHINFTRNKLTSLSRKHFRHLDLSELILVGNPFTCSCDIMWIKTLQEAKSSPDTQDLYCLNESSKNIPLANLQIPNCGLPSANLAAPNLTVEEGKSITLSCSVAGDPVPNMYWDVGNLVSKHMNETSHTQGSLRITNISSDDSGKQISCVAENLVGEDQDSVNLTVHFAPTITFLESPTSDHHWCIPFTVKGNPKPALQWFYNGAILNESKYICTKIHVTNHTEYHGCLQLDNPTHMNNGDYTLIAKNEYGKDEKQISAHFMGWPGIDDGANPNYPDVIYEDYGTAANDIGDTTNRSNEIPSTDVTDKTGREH
T2 sequence (P04629 other isoform, or with tags, fused parts or gaps limits assumed): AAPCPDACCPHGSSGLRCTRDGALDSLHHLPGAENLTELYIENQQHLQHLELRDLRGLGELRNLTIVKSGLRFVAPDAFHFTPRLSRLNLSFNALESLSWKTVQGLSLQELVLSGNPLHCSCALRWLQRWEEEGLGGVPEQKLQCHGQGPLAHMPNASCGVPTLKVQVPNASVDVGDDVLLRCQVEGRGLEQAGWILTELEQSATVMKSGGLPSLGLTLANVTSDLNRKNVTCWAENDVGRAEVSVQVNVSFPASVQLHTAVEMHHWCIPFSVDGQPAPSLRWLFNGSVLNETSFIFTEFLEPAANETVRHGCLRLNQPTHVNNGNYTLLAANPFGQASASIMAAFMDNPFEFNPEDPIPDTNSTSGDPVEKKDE

For B1, the Kd (ProNGF) was 130 nM, the koff (ProNGF) was 0.0858 s⁻¹ and the kon (ProNGF) was 658000 M⁻¹ s⁻¹.

B2: brain-derived neurotrophic factor (BDNF) (ligand, UniProt P23560 129-247, looked up)
chain: HSDPARRGELSVCDSISEWVTAADKKTAVDMSGGTVTVLEKVPVSKGQLKQYFYETKCNPMGYTKEGCRGIDKRHWNSQCRTTQSYVRALTMDSKKRIGWRFIRIDTSCVCTLTIKRGR
With B2 the Kd [1] was < 0.034 nM and the Kd [2] was < 2.1 nM.

B3: NT4/5 (ligand, UniProt P34130 81-210, looked up)
chain: GVSETAPASRRGELAVCDAVSGWVTDRRTAVDLRGREVEVLGEVPAAGGSPLRQYFFETRCKADNAEEGGPGAGGGGCRGVDRRHWVSECKAKQSYVRALTADAQGRVGWRWIRIDTACVCTLLSRTGRA
With B3 the Kd [1] was < 0.2 nM, the koff [1] was 0.002 s⁻¹ and the kon [1] was > 1e+07 M⁻¹ s⁻¹. For the same binder, the Kd [2] was 88 nM, the koff [2] was 0.305 s⁻¹ and the kon [2] was 3.45e+06 M⁻¹ s⁻¹. It also gave a Kd [3] of 17 nM, a koff [3] of 0.04 s⁻¹ and a kon [3] of 2.1e+06 M⁻¹ s⁻¹. B3: no binding (tested: 0.08-250 nM) [4].

B4: NT3 (ligand, UniProt P20783 139-257, looked up)
chain: YAEHKSHRGEYSVCDSESLWVTDKSSAIDIRGHQVTVLGEIKTGNSPVKQYFYETRCKEARPVKNGCRGIDDKHWNSQCKTSQTYVRALTSENNKLVGWRWIRIDTSCVCALSRKIGRT
notes: 'native ligands' bought from R&D Systems or made in-house
With B4 the Kd [1] was < 4.4 nM.
